# T1: human UHRF1 PHD finger, residues 299–366 (human, UniProt Q96T88 299-366)
# T1 chain: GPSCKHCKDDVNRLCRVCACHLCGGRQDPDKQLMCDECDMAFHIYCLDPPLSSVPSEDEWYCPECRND
# Molecular target: T1, human UHRF1 PHD finger, residues 299–366
# Test: ITC
row,Kd [nM],Binder
1,1280,SRRGVRTALSVQREKMARLRYMLLGGVRTHERRPTNKE (domain or fragment) [hDPPA3_(81-118) L88A]
2,1610,SRRGARTLLSVQREKMARLRYMLLGGVRTHERRPTNKE (domain or fragment) [hDPPA3_(81-118) V85A]
